From patent publication EP1088233B9, “A BIOLUMINESCENCE RESONANCE ENERGY TRANSFER (BRET) SYSTEM AND ITS USE” (PerkinElmer BioSignal Inc., priority 1998, dated 1999)
pEC50: −log10 of the molar value. Where two headings read alike, the source gives them in different places. Values belong to the compound of their own block, whether it stands above or below them.

Experiments:
[1] = Cell viability by trypan blue dye in BRET assay media; format: cell-based; settings: hamster, cho cells
Experimental: The effect of the type of media on the luminescence of the Rluc was assayed in absence or in the presence of various amount of DTT. Transfected CHO cells were collected and redistributed in 96 well plate using different media conditions (Figures 24-26). Luminescence timecourses at 470nm (TopCount) were performed at 25°C upon coelenterazine addition. The effects of three different media were assayed: PBS Ca^2+/Mg^2+ (Figure 24), PBS Ca^2+/Mg^2+ + glucose (Figure 25) and DMEM without phenol red (Figure 26).
Similar results were found in presence of 100mM DTT: PBS alone gave higher long term counts. As expected, increasing the concentration of DTT improved Rluc stability in all three media. Unfortunately, high amounts of DTT (50 and 100mM) which gave the best stability, damaged the cells: viability was assayed using trypan blue dye and decreased more than 20% over a period of 2 hours. […] This concentration was chosen for the BRET assays. […] However, DTT is not necessary for the BRET reaction to occur efficiently: as it acts as a boost for the Rluc long term emission.
In order to avoid cell damage during the assay procedure and timecourse experiments, an analysis was conducted to determine whether the use of aprotinin perturbs ratiometric measurements. Aprotinin is a protease inhibitor which is often used during cell culture to maintain cell integrity. […]

[2] = Effect of DTT on BRET ratio in stable cell lines expressing Rluc or Rluc::EYFP (BRETCount); format: cell-based; settings: DTT 10mM in PBS+Ca2+/Mg2++glucose
Experimental: PBS=PBS+Ca^2+/Mg^2++glucose. DTT 10mM. […] PBS=PBS+Ca^2+/Mg^2++glucose DTT 10mM.
In PBS (Ca ^2+/Mg^2++glucose) alone, BRET ratios are lower than in presence of DTT. When DTT is added, ratios increase by almost 0.1 BRET unit.

Rluc = target: T1, Rluc (Renilla reniformis, UniProt P27652); test: Rluc luminescence with coelenterazine derivatives in cells transfected with pRluc-CMV (LumiCount); design: Normalized RLU: dose or concentration left out as unconfirmed; settings: for half-life of the reaction (Rluc luminescence): coelenterazine f 1 mM; for Normalized RLU: derivatives, 4 minutes after addition
T1 sequence (P27652 1-311): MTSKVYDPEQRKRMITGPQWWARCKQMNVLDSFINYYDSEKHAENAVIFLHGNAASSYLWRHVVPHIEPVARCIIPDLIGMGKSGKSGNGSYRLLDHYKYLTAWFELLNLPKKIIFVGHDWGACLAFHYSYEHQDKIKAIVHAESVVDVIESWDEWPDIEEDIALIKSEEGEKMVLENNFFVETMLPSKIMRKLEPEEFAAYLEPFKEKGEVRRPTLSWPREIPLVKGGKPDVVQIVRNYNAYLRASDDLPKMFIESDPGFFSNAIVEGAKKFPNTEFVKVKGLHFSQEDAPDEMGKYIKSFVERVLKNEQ
Experimental: i) Coelenterazine derivatives. […] Cells (HeLa) were transiently transfected inT-75 flask with pRluc-CMV orcontrol vector using LipofectAMINE. At 48 hours post-transfection, cells were harvested and seeded in 96-well white ViewPlate (in duplicate). Coelenterazine derivatives (1 mM) were then added in each well. Luminescence from transfected cells was measured using the LumiCount 4 minutes after addition of coelenterazine derivatives. LumiCount was set at 1100V PMT and 1 sec read length.
Cells (HeLa and CHO) were transiently transfected inT-75 flasks with pRluc-CMV using LipofectAMINE. At 48 hours post-transfection, cells were harvested and seeded in 96-well white ViewPlate at a density of 50 000 cells per wells (in quadruplicate). Coelenterazine f (1 mM) was then added in each well. Luminescence from transfected cells was measured using the LumiCount at different times after addition of coelenterazine. LumiCount was set at 1100V PMT and 0.1 sec read length.

[3] = system: HeLa cells transfected with the apoptosis sensor; test: Apoptosis sensor (Rluc-caspase-EYFP) BRET assay; format: cell-based; settings: staurosporine 1mM, 5 hours of apoptosis induction, 10 minutes after coelenterazine h
Source text: A BRET apoptosis sensor was engineered by introducing a caspase-3 recognition site in the linker regionof the Rluc-EYFP fusionconstruct. Upon inductionof apoptosis, caspase-3 should recognize and cleave the linker region which should separate Rluc of EYFP and thereby decrease the BRET ratio over time.
pCEP4/Rluc-EYFP and pCEP4/Rluc-caspase-EYFP DNAs were transfected into HeLa cell using LipofectAMINE (BRL/Gibco-Life technologies) in 100mm dishes as described in the manufacturer's protocol. 24 hours post-transfection, transfected cells were harvested and distributed into 96-well microplates (white Optiplate from Packard) at a density of 30,000 cells per well. The following day, cells are induced to undergo apoptosis using staurosporine 1mM dissolved in ISCOVE media (BRL/Gibco-Life technologies) without serum and phenol red at 37°C (total volume here is […]) for 5 hours. […] of BRET buffer (PBS Ca^2+/Mg^2+ + glucose without aprotinin) and […] of coelenterazine h […] is added to start the bioluminescent reaction. Light emissions are detected using the BRETCount (read length sec for each filter, temperature 25°C). Data was collected 10 minutes after addition of coelenterazine h. The assay was done in quadruplicate.
Figure 31 gives representative BRET ratio changes in HeLa cells after 5 hours of apoptosis induction by staurosporine. […]

[4] = target: EGF receptors expressed endogenously by GH4-C1 cells; test: cell-based or functional assay
[5] = target: EYFP•KaiB fusion protein (Aequorea victoria; Synechococcus (cyanobacterium)) (UniProt Q79PF5); test: BRET luminescence spectra, co-expression in E. coli
Sequence of EYFP•KaiB fusion protein (Aequorea victoria; Synechococcus (cyanobacterium)) (Q79PF5 whole entry, the tested form may be a part): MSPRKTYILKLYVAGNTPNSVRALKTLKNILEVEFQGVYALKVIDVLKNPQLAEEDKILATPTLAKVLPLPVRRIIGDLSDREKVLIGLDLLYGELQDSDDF

[6] = target: EYFP•KaiA fusion protein (Aequorea victoria; Synechococcus (cyanobacterium)) (UniProt Q79PF6); test: BRET imaging of E. coli cultures through 480 and 530 nm filters, cooled-CCD camera
Sequence of EYFP•KaiA fusion protein (Aequorea victoria; Synechococcus (cyanobacterium)) (Q79PF6 whole entry, the tested form may be a part): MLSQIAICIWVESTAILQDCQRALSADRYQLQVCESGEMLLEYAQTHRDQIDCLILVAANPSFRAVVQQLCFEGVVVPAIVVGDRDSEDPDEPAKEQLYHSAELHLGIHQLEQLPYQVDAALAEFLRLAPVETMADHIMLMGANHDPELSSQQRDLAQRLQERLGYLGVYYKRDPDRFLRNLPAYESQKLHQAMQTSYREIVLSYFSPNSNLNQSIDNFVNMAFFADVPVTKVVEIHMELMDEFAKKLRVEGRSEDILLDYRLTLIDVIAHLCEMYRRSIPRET

[7] = target: EYFP•KaiB fusion protein (Aequorea victoria; Synechococcus (cyanobacterium)) (UniProt Q79PF5); test: as above
[8] = target: enhanced yellow fluorescent protein (EYFP) (Aequorea victoria); test: BRET in co-transfected cells, LumiCount, black microplate, 200 ul, 5 uM coelenterazine, 50,000 cells per well
[9] = target: enhanced yellow fluorescent protein (EYFP) (Aequorea victoria); test: BRET in co-transfected cells, LumiCount, white microplate, 100 ul, 5 uM coelenterazine, 50,000 cells per well
[10] = target: enhanced yellow fluorescent protein (EYFP) (Aequorea victoria); test: BRET in co-transfected cells, LumiCount, white microplate, 200 ul, 5 uM coelenterazine, 50,000 cells per well
calcitonin receptor [11] = target: T2, calcitonin receptor (Cricetulus griseus, UniProt G3GXI2); test: cAMP sensor (CBP:CREB) BRET assay in CHO-K1 cells, endogenous calcitonin receptor; format: cell-based
T2 sequence (G3GXI2 40-539): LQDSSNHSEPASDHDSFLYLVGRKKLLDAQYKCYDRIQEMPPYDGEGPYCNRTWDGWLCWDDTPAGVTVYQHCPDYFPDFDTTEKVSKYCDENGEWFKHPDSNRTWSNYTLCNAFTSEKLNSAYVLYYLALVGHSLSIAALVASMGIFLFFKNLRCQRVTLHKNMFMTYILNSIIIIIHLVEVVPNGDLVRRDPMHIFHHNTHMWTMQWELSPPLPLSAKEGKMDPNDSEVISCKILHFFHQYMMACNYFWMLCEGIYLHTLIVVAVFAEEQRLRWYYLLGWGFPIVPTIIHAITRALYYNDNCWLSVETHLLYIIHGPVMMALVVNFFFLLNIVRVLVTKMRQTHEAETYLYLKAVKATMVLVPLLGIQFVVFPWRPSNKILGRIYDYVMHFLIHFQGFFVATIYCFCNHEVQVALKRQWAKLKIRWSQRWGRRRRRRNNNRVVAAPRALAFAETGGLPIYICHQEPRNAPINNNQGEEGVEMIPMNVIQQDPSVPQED
Experimental: The pCDNA3./Rluc-CBP-NLS and pCDNA3.1 /EYFP-CREB-NLS DNA constructs were transiently transfected into CHO-K1, CHO-CCRS or CHW-β2 cell lines using LipofectAMINE™ (BRL/Gibco-Life technology, Gaethersburg, MD) using equal amount (4 µg) of DNA for each construct in 100mm dishes.
BRET assay using the transfected cells in suspension. At 48 hours post-transfection, the transfected cells were starved for 2 hours in a mixture of PBS + Ca2 + 1 mM/Mg2 + 0.5mM + glucose 1 g/l +aprotinin 2 µg/ml at 37°C before being harvested, washed with a mixture of PBS Ca2+/Mg2+ + glucose + aprotinin 2 µg/ml and counted. […]
BRET assay using transfected cells attached onto the bottom of the microplate. […] At 48 hours post-transfection, the transfected cells were starved as previously mentioned, washed and then analyzed without being harvested.
The assay conditions for both methods (cell in suspension or attached), cells were in PBS Ca2+ Mg2+ + glucose + aprotinin 2 µg/ml in volume of […]. […] Each well was read using both filters for 1 second each.
The CHO-K1 cells were transfected with both constructs. At 48 hours post-transfection, the cells were starved for 2 hours, washed, harvested and counted. […] The microplate was loaded into the BRETCount and light outputs at 470nm and 550nm were determined at several points to determine a timecourse (fig. 10). […]

calcitonin receptor [12] = target: T2, calcitonin receptor; settings: literature values; read-out: EC50 found in literature for a functional assay; cited from earlier work
[13] = target: calcitonin receptor expressed endogenously by CHO-K1 cells; test: cell-based or functional assay
[14] = target: Rluc-caspase-EYFP (apoptosis sensor) (Renilla reniformis; Aequorea victoria) (UniProt P27652); test: cell-based or functional assay

Compound: OC(CS)C(O)CS (stereo not shown) [DTT]
cytotoxicity at 2 h, 10000 µM ([1]; DTT 10mM, over 2 hours, read-out: viability loss): < 15%
cytotoxicity at 2 h ([1]; DTT 50 and 100mM, over a period of 2 hours, read-out: viability decrease): > 20%
increase of BRET ratio [2]: ~0.1 BRET unit

Compound: Oc1ccc(-c2cn3c(O)c(Cc4ccc(F)cc4)nc3c(Cc3ccccc3)n2)cc1 [f, coelenterazine f]
half-life of the reaction (Rluc luminescence) (Rluc; CHO cells): 11 min
half-life of the reaction (Rluc luminescence) (Rluc; HeLa cells): 13 min
Normalized RLU (Rluc; HeLa cells): 180126 RLU

Compound: Oc1ccc(-c2cn3c(O)c(Cc4ccccc4)nc3c(Cc3ccccc3)n2)cc1 [h, coelenterazine h]
Normalized RLU (Rluc; HeLa cells): 173547 RLU

Compound: Oc1ccc(-c2cn3c(O)c(Cc4ccccc4)nc3c(CC3CCCC3)n2)cc1 [hcp]
Normalized RLU (Rluc; HeLa cells): 48144 RLU

Compound: Oc1ccc(Cc2nc3c(Cc4ccccc4)nc(-c4ccc(O)cc4)cn3c2O)cc1 [native, coelenterazine]
Normalized RLU (Rluc; HeLa cells): 2030 RLU

Compound: CN[C@@H]1C[C@H]2O[C@@](C)([C@@H]1OC)n1c3ccccc3c3c4c(c5c6ccccc6n2c5c31)C(=O)NC4 [staurosporine]
BRET ratio change (decrease) [3]: 0.1 unit

EC50 of the EGF dose response, BRET ratio of the TKR sensor (Rluc-PTB + EYFP-SH2) in GH4-C1 cells at 45 minutes post induction [4]: 920 pM
Compound: EGF (ligand)

share of the RLUC luminescence for which energy transfer occurs [5]: 50%
530/480nm ratio of luminescence [6]: 0.4
530/480nm ratio of luminescence [7]: 0.9
Compound: RLUC•KaiB fusion protein (from UniProt Q79PF5 1-102)

Ratio 530/480 [8]: 0.76
Ratio 530/480 [9]: 0.9
Ratio 530/480 [10]: 0.87
Compound: Renilla luciferase (RLUC) (from UniProt P27652 1-311) (enzyme)

Compound: calcitonin
pEC50 (calcitonin receptor [11]; CHO-K1 transfected with cAMP sensor, attached cells, data point at 45 minutes after addition of coelenterazine): 10.57
BRET ratio over time (calcitonin receptor [11]; calcitonin 2 nM and 10nM, CHO-K1 cells in suspension, compared to buffer alone): Ratios increased over time
pEC50 (calcitonin receptor [12]): 10.22 to 10.52

EC50 of the calcitonin dose response, BRET ratio of the cAMP sensor in attached CHO-K1 cells at 45 minutes [13]: 27 pM
Compound: calcitonin (peptide)

BRET ratio change in HeLa cells after 5 hours of apoptosis induction by staurosporine [14]: 0.1 unit
Compound: caspase-3 (endogenous in HeLa cells) (from UniProt P42574 29-277) (enzyme)
